For test [1], the target named is CMV pp65501-509 antigen complex on Caki-2-PP65 target cells (human; human cytomegalovirus, UniProt P61769 21-119). The test is described as follows: cell-based or functional assay.
The target in test [2] is T1, CMV pp65 peptide on HLA-A*11:01 (human).
T1 peptide: ATVQGQNLK
The test is described as follows: multimer staining.

B1: Tenth group of TCR (TCR, V domains shown)
V domain 1: QTVTQSQPEMSVQEAETVTLSCTYDTSESDYYLFWYKQPPSRQMILVIRQEAYKQQNATENRFSVNFQKAAKSFSLKISDSQLGDAAMYFCAYRSFYTGANSKLTFGKGITLSVRP
V domain 2: DAGVTQSPTHLIKTRGQQVTLRCSPKSGHDTVSWYQQALGQGPQFIFQYYEEEERQRGNFPDRFSGHQFPNYSSELNVNALLLGDSALYLCASSLYGGPGDQPQHFGDGTRLSILE
Consider B1, for which, in test [1], the “killing activity at 4 h (RTCA), Caki-2-PP65 target cells, effector-to-target ratio 1:1” value worked out at 23.5%; the “killing activity at 4 h (RTCA), Caki-2-PP65 target cells, effector-to-target ratio 5:1 (ratio cell blank in this row, taken from r7)” value was determined as 61.2%; the “killing activity at 4 h (RTCA), Caki-2-PP65 target cells, effector-to-target ratio 10:1” value is 67.4%.

B2: Tenth group of TCR (TCR, V domains shown)
Valpha: AQTVTQSQPEMSVQEAETVTLSCTYDTSESDYYLFWYKQPPSRQMILVIRQEAYKQQNATENRFSVNFQKAAKSFSLKISDSQLGDAAMYFCAYRSFYTGANSKLTFGKGITLSVRP
Vbeta: DAGVTQSPTHLIKTRGQQVTLRCSPKSGHDTVSWYQQALGQGPQFIFQYYEEEERQRGNFPDRFSGHQFPNYSSELNVNALLLGDSALYLCASSLYGGPGDQPQHFGDGTRLSIL
With B2, in test [2], the binding result is given as “recognises”.

B3: Ninth group of TCR (TCR, V domains shown)
V domain 1: EDQVTQSPEALRLQEGESSSLNCSYTVSGLRGLFWYRQDPGKGPEFLFTLYSAGEEKEKERLKATLTKKESFLHITAPKPEDSATYLCVITTSGTYKYIFGTGTRLKVLA
V domain 2: NAGVTQTPKFQVLKTGQSMTLQCAQDMNHNSMYWYRQDPGMGLRLIYYSASEGTTDKGEVPNGYNVSRLNKREFSLRLESAAPSQTSVYFCASTINTYEQYFGPGTRLTVTE
In the case of B3, in test [1], the “killing activity at 4 h (RTCA), Caki-2-PP65 target cells, effector-to-target ratio 1:1” value was determined as 7.1%; the “killing activity at 4 h (RTCA), Caki-2-PP65 target cells, effector-to-target ratio 5:1” value amounted to 44.5%; the “killing activity at 4 h (RTCA), Caki-2-PP65 target cells, effector-to-target ratio 10:1” value came out at 61.5%.

B4: Ninth group of TCR (TCR, V domains shown)
Valpha: EDQVTQSPEALRLQEGESSSLNCSYTVSGLRGLFWYRQDPGKGPEFLFTLYSAGEEKEKERLKATLTKKESFLHITAPKPEDSATYLCVITTSGTYKYIFGTGTRLKVLA
Vbeta: NAGVTQTPKFQVLKTGQSMTLQCAQDMNHNSMYWYRQDPGMGLRLIYYSASEGTTDKGEVPNGYNVSRLNKREFSLRLESAAPSQTSVYFCASTINTYEQYFGPGTRLTVT
For B4, the binding result in test [2] is recorded as “recognises”.

Values taken from patent publication EP4624499A1 (Immunotech Applied Science Limited, dated 2025).
